Entries after “also recorded” stand apart in the source; their conditions may differ.

In assay [1] the test system is HEK 293 cells. As to the kind of experiment: Annexin V-FITC/propidium iodide staining of Bit1-transfected cells. Type of assay: cell-based, human. The method, then:
Bit1 activity was analyzed in the human embryonic kidney cell line, HEK 293. […] Furthermore, HEK 293 cells were transfected with a Bcl-2-promoter-luciferase reporter construct together with increasing amounts of Bit1 expression construct; Bcl-2 transcription was measured by quantifying luciferase […] after 24 hours in culture. In agreement with the CHO cell results, transcription from the Bcl-2 promoter was suppressed in the Bit1-transfected HEK 293 cells (see FIG. 1B). […] In particular, the percentages of annexin V-positive cells (lower right quadrants) are about 1.4% in the control and about 4.7% in the Bit1-transfected cells.
Analysis of cell viability and apoptosis was performed as follows. Cell viability was measured by trypan blue exclusion analysis. Apoptosis was confirmed by DNA fragmentation (Oncogene; La Jolla, Calif.) thirty-six hours after transfection. Annexin-V staining (BD Biosciences Clontech; Palo Alto, Calif.) was performed according to the manufacturer's protocol.

Assay [2] deals with 19,000 human cDNAs. Description: cDNA microarray analysis of ecdysone-induced Bit1 or AES cell lines. The class given is cell-based. The procedure:
To determine whether the Bit1/AES pathway can regulate the transcription of genes other than Bcl-2, two stable cell lines were established expressing either-Bit1 or AES under control of an ecdysone-inducible promoter. To detect genes regulated by Bit1 or AES, probes were prepared from the ecdysone-induced cell lines and used to screen microarrays representing 19,000 human cDNAs. […] Down-regulation of HSP-70 and thymosin 4 in cells induced to express Bit1 or AES was confirmed by Northern blot analysis (see FIG. 7).
cDNA microarray analysis was performed as follows. Total RNA was purified 48 hours after treatment with 10 μM ponasterone A (Invitrogen; San Diego, Calif.) from the ecdysone inducible cell line ECR-293-Bit1 or ECR-293-AES according to the manufacturer's instructions (Qiagen; Valencia, Calif.). cDNA probes were generated and hybridized with a microarray containing 19,000 human cDNAs from Microarray Centre at University Health Network, Ontario Cancer institute. cDNAs were labeled with fluorescent dyes (Cy3 or Cy5) using reverse transcription. Arrays were processed and hybridized essentially as described in Iyer et al., Science 283:83-87 (1999). After hybridization, arrays were scanned to measure fluorescence using a ScanArray 4000 scanner (Perkin Elmer; Meriden, Conn.). Raw data files generated by scanner software were imported into ImaGene and Gene Spring for analysis. Experiments were performed in duplicate using color reversals.

Assay [3] has as its system Bcl-2 promoter. As to the kind of experiment: Bcl-2 promoter reporter assay in CHO cells. The class given is cell-based, Chinese hamster. The text has this: The entire CGI-147 open reading frame encodes a 27-kDa protein with no sequence similarity to other proteins. […] To denote this inhibitory transcriptional activity, the Clone-3 gene was denoted Bit1 for Bcl-2 inhibitor of transcription.
(A reporter such as luciferase makes a cellular process visible.)

B1: Bit1: human Bit1 polypeptide of 179 residues (SEQ ID NO:2), pro-apoptotic, expressed in cells by transfection (protein, listed as Homo sapiens)
chain: MPSKSLVMEYLAHPSTLGLAVGVACGMCLGWSLRVCFGMLPKSKTSKTHTDTESEASILGDSGEYKMILVVRNDLKMGKGKVAAQCSHAAVSAYKQIQRRNPEMLKQWEYCGQPKVVVKAPDEETLIALLAHAKMLGLTVSLIQDAGRTQIAPGSQTVLGIGPGPADLIDKVTGHLKLY
Turning to B1, the “Late stage apoptosis, both annexin V and propidium iodide uptake (upper right quadrants)” value in assay [1] (Bit1-transfected HEK 293 cells versus control) stood at 18%. Moreover, in assay [1] (Bit1-transfected HEK 293 cells, control about 1.4%), the “percentages of annexin V-positive cells (lower right quadrants)” value is “about 4.7%”. Moreover, the Bcl-2 expression result in assay [2] (Bit1 and AES stable cell lines) is “not measurably altered”. Also, the “Microarray result: gene induced” value in assay [2] (at least a two-fold induction, value is the gene) is reported as “Atrophin-1 interacting protein 1; also recorded: Mannosyl (β-1,4)-glycoprotein; also recorded: insulin-like growth factor-binding; also recorded: Tissue factor pathway inhibitor 2”. The “Microarray result: gene suppressed” value in assay [2] (at least a two-fold suppression, value is the gene) is given as “Heat Shock 70 kD protein 1A; also recorded: Thymosin β-4; also recorded: Actin-binding LIM protein; also recorded: sialytransferase”. Besides, the Bcl-2 promoter activity result in assay [3] (CHO cells, 1 μg Bcl-2-luciferase reporter construct, 24 hours in culture) was “down-regulate”. In assay [3] (transfected into CHO cells), the “expression of the Bcl-2 promoter construct” value is listed as “down-regulated”.

Values taken from patent US8017326B2, “Methods of modulating cell death based on the Bit-1/AES regulatory pathway” (Sanford-Burnham Medical Research Institute, priority 2002, dated 2011).
